Experiment: Storage stability in storage buffer at different temperatures, residual DON transformation activity
Assay type: biochemical
Details: for Relative DON transformation activity: storage buffer
Procedure: To determine the transformation of DON to epi-THS by Akr I-III, described herein, the following assay was performed. An assay buffer was prepared containing 40 ppm DON, 1 mM NADPH in Teorell Stenhagen (TS) buffer, pH 6.0 (Östling and Virtama, Acta Physiologica Scandinavica, 1946, 11:4, 289-293). Tubes containing the assay buffer were transferred in a heating block at 30° C. The reaction was started by addition of Akr I-III to a final concentration of 200 nM in a final reaction volume of 200 μL. Samples were taken before reaction start, and 2, 5, 10, 15 and 20 min after reaction start. DON transformation reactions in these samples were stopped by mixing with absolute methanol at a 1:2 ratio, followed by a 1:100 dilution with 40% methanol. The concentrations of DON and epi-THS in the samples were determined with liquid chromatography-mass spectrometry (LC-MS) on a Sciex 5500 triple quadrupole mass spectrometer coupled to Agilent 1290 series UHPLC system, using the following MS parameters: Acquisition duration: 4 min; Scan Type: MRM (MRM); Polarity: Negative; Ion Source: Turbo Spray.
The storage stability of Akr I-III was tested by incubation of 5 μM enzyme solutions in storage buffer (50 mM Tris pH 9.0, 0.5M NaCl, 50% Glycerol), for 60 min in a thermocycler (Mastercycler, Eppendorf) set to gradient mode from 30° C. to 50° C. Throughout the incubation, samples were removed and placed on ice until DON transformation assays were performed as described in Example 3 to determine enzyme activities. The starting activity at time 0 min was set to 100% and the relative residual activities were determined throughout the incubation. Akr I retained more than 33% activity during 60 min in pH 6 at temperatures from 29.9° C. to 46.0° C. Akr III retained 15% to 90% activity during 20 min in pH 6 at temperatures from 29.9° C. to 40.7° C.

[1] = 29.9° C., 0 min (starting activity set to 100%)
[2] = 35.3° C., 0 min (starting activity set to 100%)
[3] = 37.9° C., 0 min (starting activity set to 100%)
[4] = 40.7° C., 0 min (starting activity set to 100%)
[5] = 43.4° C., 0 min (starting activity set to 100%)
[6] = 46.0° C., 0 min (starting activity set to 100%)
[7] = 50.8° C., 0 min (starting activity set to 100%)

B1: Akr II: artificial amino acid sequence, variant of a wild type aldo-keto reductase (protein)
chain: MRTTEIAQGLKVSNLCIGAGPLGGMPTAFGYDVSEERGIATVQAVFDSPINFMDTSSEYGGSEARIGKVIREGLMPKGFVISSKADAEGEGVGRRGDFSAKQVRASFELSLERLGLTHLDVYFLHDPEKFPFEQVMARGGAMEELLRLKDEGLVGLVGVAGGDVLEMARYVDTGSLDILLNYGRYTLLDRSADSLITKVSDAGMAFLNAGPYASGLLAAPRGGSAWYQYAPPDATALQAVDQLHELCESFDVSLRSVALQFSMRDPRITSTVVGLSRPERVRALLDDEAAEIPAELWEQLPAPLNGDIVLPG
modifications: ArkII
[1]
  Relative DON transformation activity: 100.00%
29.9° C., 5 min
  Relative DON transformation activity: 95.8%
29.9° C., 10 min
  Relative DON transformation activity: 91.6%
29.9° C., 20 min
  Relative DON transformation activity: 90.3%
29.9° C., 35 min
  Relative DON transformation activity: 89.4%
29.9° C., 50 min
  Relative DON transformation activity: 84.1%
29.9° C., 60 min
  Relative DON transformation activity: 86.8%
[2]
  Relative DON transformation activity: 100.00%
35.3° C., 5 min
  Relative DON transformation activity: 91.9%
35.3° C., 10 min
  Relative DON transformation activity: 92.5%
35.3° C., 20 min
  Relative DON transformation activity: 86.0%
35.3° C., 35 min
  Relative DON transformation activity: 77.4%
35.3° C., 50 min
  Relative DON transformation activity: 49.6%
35.3° C., 60 min
  Relative DON transformation activity: 46.4%
[3]
  Relative DON transformation activity: 100.00%
37.9° C., 5 min
  Relative DON transformation activity: 90.5%
37.9° C., 10 min
  Relative DON transformation activity: 80.2%
37.9° C., 20 min
  Relative DON transformation activity: 65.0%
37.9° C., 35 min
  Relative DON transformation activity: 38.1%
37.9° C., 50 min
  Relative DON transformation activity: 10.6%
37.9° C., 60 min
  Relative DON transformation activity: 6.2%
[4]
  Relative DON transformation activity: 100.00%
40.7° C., 5 min
  Relative DON transformation activity: 61.5%
40.7° C., 10 min
  Relative DON transformation activity: 56.1%
40.7° C., 20 min
  Relative DON transformation activity: 15.5%
40.7° C., 35 min
  Relative DON transformation activity: 11.3%
40.7° C., 50 min
  Relative DON transformation activity: 0.00%
40.7° C., 60 min
  Relative DON transformation activity: 0.00%
[5]
  Relative DON transformation activity: 100.00%
43.4° C., 5 min
  Relative DON transformation activity: 39.2%
43.4° C., 10 min
  Relative DON transformation activity: 34.9%
43.4° C., 20 min
  Relative DON transformation activity: 21.9%
43.4° C., 35 min
  Relative DON transformation activity: 7.1%
43.4° C., 50 min
  Relative DON transformation activity: 0.00%
43.4° C., 60 min
  Relative DON transformation activity: 0.00%
[6]
  Relative DON transformation activity: 100.00%
46.0° C., 5 min
  Relative DON transformation activity: 2.9%
46.0° C., 10 min
  Relative DON transformation activity: 4.7%
46.0° C., 20 min
  Relative DON transformation activity: 0.00%
46.0° C., 35 min
  Relative DON transformation activity: 2.7%
46.0° C., 50 min
  Relative DON transformation activity: 0.00%
46.0° C., 60 min
  Relative DON transformation activity: 0.00%
[7]
  Relative DON transformation activity: 100.00%
50.8° C., 5 min
  Relative DON transformation activity: 4.7%
50.8° C., 10 min
  Relative DON transformation activity: 5.7%
50.8° C., 20 min
  Relative DON transformation activity: 9.4%
50.8° C., 35 min
  Relative DON transformation activity: 2.4%
50.8° C., 50 min
  Relative DON transformation activity: 0.00%
50.8° C., 60 min
  Relative DON transformation activity: 0.00%

B2: Akr III: artificial amino acid sequence, variant of a wild type aldo-keto reductase (protein)
chain: MRTTEIAQGLKVSNLCIGAGPLGGMPTAFGYDVSEERGIATVQAVFDSPINFMDTSSEYGGSEARIGKVIREGRMPKGFVISSKADAEGEGVGRRGDFSAKQVRASFELSLERLGLTHLDVYFLHDPEKFPFEQVMARGGAMEELLRLKDEGLVGLVGVAGGDVLEMARYVDTGSLDILLNYGRYTILDRSADSLITKVSDAGMAFLNAGPYASGLLAAPRGGSAWYQYAPPDATALQAVDQLHELCESFDVSLRSVALQFSMRDPRITSTVVGLSRPERVRALLDDEAAEIPAELWEQLPAPLNGDIVLPR
modifications: ArkIII
During 60 min in pH 6 at temperatures from 29.9° C. to 46.0° C.
  retained activity: more than 50%
[1]
  Relative DON transformation activity: 100.00%
29.9° C., 5 min
  Relative DON transformation activity: 89.1%
29.9° C., 10 min
  Relative DON transformation activity: 91.6%
29.9° C., 20 min
  Relative DON transformation activity: 90.3%
29.9° C., 35 min
  Relative DON transformation activity: 93.1%
29.9° C., 50 min
  Relative DON transformation activity: 74.0%
29.9° C., 60 min
  Relative DON transformation activity: 72.2%
[2]
  Relative DON transformation activity: 100.00%
35.3° C., 5 min
  Relative DON transformation activity: 96.00%
35.3° C., 10 min
  Relative DON transformation activity: 65.2%
35.3° C., 20 min
  Relative DON transformation activity: 98.6%
35.3° C., 35 min
  Relative DON transformation activity: 75.2%
35.3° C., 50 min
  Relative DON transformation activity: 80.2%
35.3° C., 60 min
  Relative DON transformation activity: 104.3%
[3]
  Relative DON transformation activity: 100.00%
37.9° C., 5 min
  Relative DON transformation activity: 94.01%
37.9° C., 10 min
  Relative DON transformation activity: 74.5%
37.9° C., 20 min
  Relative DON transformation activity: 43.9%
37.9° C., 35 min
  Relative DON transformation activity: 75.2%
37.9° C., 50 min
  Relative DON transformation activity: 80.9%
37.9° C., 60 min
  Relative DON transformation activity: 78.6%
[4]
  Relative DON transformation activity: 100.00%
40.7° C., 5 min
  Relative DON transformation activity: 104.1%
40.7° C., 10 min
  Relative DON transformation activity: 76.1%
40.7° C., 20 min
  Relative DON transformation activity: 81.6%
40.7° C., 35 min
  Relative DON transformation activity: 104.5%
40.7° C., 50 min
  Relative DON transformation activity: 75.8%
40.7° C., 60 min
  Relative DON transformation activity: 105.1%
[5]
  Relative DON transformation activity: 100.00%
43.4° C., 5 min
  Relative DON transformation activity: 83.4%
43.4° C., 10 min
  Relative DON transformation activity: 68.1%
43.4° C., 20 min
  Relative DON transformation activity: 66.7%
43.4° C., 35 min
  Relative DON transformation activity: 89.3%
43.4° C., 50 min
  Relative DON transformation activity: 81.3%
43.4° C., 60 min
  Relative DON transformation activity: 91.8%
[6]
  Relative DON transformation activity: 100.00%
46.0° C., 5 min
  Relative DON transformation activity: 97.7%
46.0° C., 10 min
  Relative DON transformation activity: 62.6%
46.0° C., 20 min
  Relative DON transformation activity: 62.5%
46.0° C., 35 min
  Relative DON transformation activity: 58.4%
46.0° C., 50 min
  Relative DON transformation activity: 23.3%
46.0° C., 60 min
  Relative DON transformation activity: 50.4%
[7]
  Relative DON transformation activity: 100.00%
50.8° C., 5 min
  Relative DON transformation activity: 77.4%
50.8° C., 10 min
  Relative DON transformation activity: 72.7%
50.8° C., 20 min
  Relative DON transformation activity: 19.5%
50.8° C., 35 min
  Relative DON transformation activity: 16.6%
50.8° C., 50 min
  Relative DON transformation activity: 10.9%
50.8° C., 60 min
  Relative DON transformation activity: 16.0%

From US20230380451A1, “MEANS AND METHODS TO DETOXIFY MYCOTOXINS” (priority 2020, published 2023)
